From paper PMC2191135

Target: platelet membrane GPIIb-IIIa complex (alpha IIb/beta 3 integrin) (human (endogenous in platelets)) (UniProt P08514)
Test: radioligand binding

RGDS [arginine, glycine, aspartic acid (RGDS)]
% inhibition of fibrinogen binding at 100 uM RGDS: 92%
